# T1: CXCR1 (Homo sapiens, UniProt P25024)
# T1 construct: host or cells: U2OS
# T1 sequence (P25024 1-350): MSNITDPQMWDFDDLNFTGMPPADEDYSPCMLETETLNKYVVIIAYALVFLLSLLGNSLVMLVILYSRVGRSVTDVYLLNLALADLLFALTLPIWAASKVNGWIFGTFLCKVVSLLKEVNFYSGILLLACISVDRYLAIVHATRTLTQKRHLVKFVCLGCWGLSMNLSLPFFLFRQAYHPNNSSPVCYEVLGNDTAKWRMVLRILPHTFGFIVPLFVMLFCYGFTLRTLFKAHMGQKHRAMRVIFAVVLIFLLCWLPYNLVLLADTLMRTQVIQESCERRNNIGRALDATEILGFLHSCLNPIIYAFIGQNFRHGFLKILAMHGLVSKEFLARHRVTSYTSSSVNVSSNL
# B1: Ab: bovine BLV1H12 antibody with ultralong CDR3, no insertion; scaffold of the fusions and control (antibody)
# heavy: QVQLRESGPSLVKPSQTLSLTCTASGFSLSDKAVGWVRQAPGKALEWLGSIDTGGNTGYNPGLKSRLSITKDNSKSQVSLSVSSVTTEDSATYYCTSVHQETKKYQSCPDGYRERSDCSNRPACGTSDCCRVSVFGNCLTTLPVSYSYTYNYEWHVDVWGQGLLVTVSS
# light: QAVLNQPSSVSGSLGQRVSITCSGSSSNVGNGYVSWYQLIPGSAPRTLIYGDTSRASGVPDRFSGSRSGNTATLTISSLQAEDEADYFCASAEDSSSNAVFGSGTTLTVLGQPKSPPSVTLFPPSTEELNGNKATLVCLISDFYPGSVTVVWKADGSTITRNVETTRASKQSNSKYAASSYLSLTSSDWKSKGSYSCEVTHEGSTVTKTVKPSECS
# Target: T1, CXCR1
# Assay: Flow cytometry binding to CXCR1-U2OS cells
# Settings: CXCR1-U2OS cells; cell culture supernatant; flow cytometry
# Protocol: Briefly, a cell line expressing functionally validated CXCR1 derived from U2OS cells was obtained from DiscoveRx and cultured per manufacturer's instructions (Cat #93-0226C3, DiscoveRx Corporation, Freemont, Calif.). The parental cell line U2OS was obtained from ATCC and cultured under the same conditions as the CXCR1 cells. Cell culture supernatants from Example 2 above were then tested for binding to cells by flow cytometry. The adherent U2OS or CXCR1-U2OS cells were dissociated with Accutase (Innovative Cell Technologies, Inc., San Diego, Calif.), neutralized with an equal volume of media containing 10% serum, centrifuged at 1000 g, and resuspended in PBS with 2% BSA. Next, cells were dispensed into microtiter plates to achieve between 30,000 to 300,000 cells per well, centrifuged again, and resuspended in cell culture supernatant containing expressed IgG, or a dilution of IgG-containing cell culture supernatant. A fluorescent-conjugated anti-Human Fc antibody was used to detect binding of the expressed BLV1H12-IL8 fusion proteins to cells.
molecule,measurement,value
B1,Median Arbitrary Fluorescence Units (IgG binding),4 AFU

# — US10774132B2, “Ultralong complementarity determining regions and uses thereof” (THE SCRIPPS RESEARCH INSTITUTE, priority 2012, dated 2020)
